Source: US8598081B2, “Specific delivery of agrochemicals” (priority 2010, dated 2013)

Assays:
[1] = tested on: intact living potato pot plants; test: VHH binding to intact living plants; parameters: species or system potato (variety Desiree); settings: in PBS; 1 hour; FIG. 2: 5 μg/ml
Experimental: Binding of VHH to intact living plants was investigated on potato pot plants (variety Desiree). Compound leaves of intact living plants were submersed in solutions of hexahistidine-tagged VHH in PBS, or PBS alone for control conditions, leaving the compound leaves attached to the plants. VHH were allowed to bind for 1 hour. Next, the compound leaves still attached to the plants were washed five times in PBS in Erlenmeyer flasks. Different leaves and petiole sections were sampled. Bound VHH were detected by incubation with monoclonal mouse anti-histidine antibodies directly conjugated with Alexa-488 fluorescent dye (Abd Serotec) in PBS for 1 hour. Unbound anti-histidine antibodies were removed by washing five times with PBS. Whole leaves, leaf discs, or petiole sections were analyzed for bound VHH with microscopy.

[2] = molecular target: T1, potato lectin (Solanum tuberosum, UniProt Q9S8M0); test: VHH binding to potato lectin in ELISA; settings: Table 2; Blank (no antigen coating); VHH 3 μg/ml
T1 construct: purchased Sigma
T1 sequence (Q9S8M0 whole entry, looked up): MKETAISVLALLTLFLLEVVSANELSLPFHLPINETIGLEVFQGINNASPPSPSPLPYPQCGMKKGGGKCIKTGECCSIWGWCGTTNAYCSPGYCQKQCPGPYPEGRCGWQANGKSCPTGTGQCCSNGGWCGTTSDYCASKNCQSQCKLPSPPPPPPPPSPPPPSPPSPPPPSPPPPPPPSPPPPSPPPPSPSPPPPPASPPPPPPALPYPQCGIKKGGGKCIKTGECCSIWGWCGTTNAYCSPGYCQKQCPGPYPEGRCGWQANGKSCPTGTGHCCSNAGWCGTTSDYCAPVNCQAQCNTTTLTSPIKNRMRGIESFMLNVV
Experimental: ELISA plates (Maxisorp, Nunc) coated with 100 μl per well 100 μg/ml potato lectin (Sigma) in PBS were coated at 4° C. overnight and coating was continued at room temperature for 1 hour on the next day. Plates were washed three times with PBS/0.05%-TWEEN®-20 and blocked with 5% skimmed milk in PBS for 1 hour. VHH (3 μg/ml) were transferred to the potato lectin-coated plates and VHH antibody fragments were allowed to bind for 1 hour at room temperature. Bound VHH were detected with sequential incubations with monoclonal mouse anti-histidine antibodies (Abd Serotec) and rabbit anti-mouse IgG whole molecule antibodies conjugated with alkaline phosphatase (RaM/AP) (Sigma) in 1% MPBS/0.05%-TWEEN®-20. Unbound antibodies were removed by washing three times with PBS/0.05%-TWEEN®-20 after each antibody incubation. The plates were washed an additional two times with PBS and 100 μl pNPP disodium hexahydrate substrate (Sigma) was added to each well and the absorbance at 405 nm was measured (see Table 2).

[3] = ELISA-like assay, microcapsules with monovalent or bivalent VHH, unrelated antigen; assay type: binding; parameters: unit not given beside the values; settings: Uvitex microcapsules
From the text: Bivalent VHH constructs were produced in bacteria by cloning two VHH sequences in tandem into the pASF22 vector, creating a fusion of two VHH with a 9 glycine-serine linker (GGGGSGGGS (SEQ ID NO:50)) in between the two VHH. pASF22 is an in-house produced pMES derivative. The tags that were used were C-terminal c-Myc (EQKLISEEDLN (SEQ ID NO:51)) and hexahistidine (HHHHHH (SEQ ID NO:52)). A triple alanine linker (AAA) was placed in between the C-terminal end of the VHH and the c-Myc tag and a glycine-alanine-alanine (GAA) linker was used in between the C-terminal end of the c-Myc tag and the hexahistidine tag. The complete sequence C-terminal of the bivalent VHH that was used: AAA-EQKLISEEDLN-GAA-HHHHHH (SEQ ID NO:53). Fresh overnight cultures were produced by starting from colony streaks and inoculation of 2×TY media supplemented with 2% glucose and 100 μg/ml ampicillin. The overnight cultures were used to inoculate fresh cultures 1:100 in 2×TY media with 0.1% glucose and 100 μg/ml ampicillin. After growing at 37° C. in a shaking incubator for 3 hours, IPTG was added to a 1 mM final concentration and recombinant bivalent VHH were produced during an additional incubation for 4 hours. Cells were spun down and resuspended in 1/50th of the original culture volume of PBS and incubated with head-over-head rotation at 4° C. for 30 minutes. Spheroplasts were spun down by centrifugation at 3,000 g and 4° C. for 20 minutes. Supernatants were transferred to fresh tubes and centrifuged again at 3,000 g and 4° C. for 20 minutes. The supernatant was collected and sodium chloride concentration was adjusted to 500 mM and imidazole concentration to 20 mM. Hexahistidine-tagged bivalent VHH were purified from the extracts using HisTrap FF Crude 5 ml IMAC columns (GE Lifesciences) and HiLoad 16/60 Superdex 75 prep grade gel filtration column (GE Lifesciences) on an AKTAxpress system (GE Lifesciences) following standard procedures.
Next, it was investigated if binding of microcapsules to surfaces could be improved by using targeting agents comprising multivalent VHH. A series of parallel couplings was performed with equal amounts of monovalent VHH, bivalent VHH, and unrelated VHH. Success of coupling of VHH and multivalent VHH were analyzed as described in Example 4. An ELISA-like assay was performed using high bind half area microplates (Greiner Bio-One) coated with 5 μg/well potato lectin. Control wells included blank wells or wells coated with unrelated antigens. Plates were washed three times with PBS with 0.05%-TWEEN®-20 and blocked with 5% skimmed milk in PBS for 1 to 2 hours. VHH-coupled Uvitex-containing microcapsules were diluted to appropriate densities in 1% skimmed milk in PBS with 0.05%-TWEEN®-20. Five-fold serial dilution series were prepared and allowed to bind to the surface to compare binding of microcapsules coupled with monovalent or bivalent VHH. Microcapsules were added to the antigen-coated or control wells and allowed to bind for 1 hour. Unbound microcapsules were removed by washing five times with PBS with 0.05%-TWEEN®-20. The bottoms of ELISA plate wells were analyzed for bound microcapsules on a macrozoom microscope system (Nikon). Microcapsules were counted using Volocity image analysis software (Perkin Elmer). A DAPI filter was used to visualize Uvitex microcapsules. […] The surface area of microcapsules with coupled bivalent VHH was 15-fold above the surface area of blank microcapsules applied at this microcapsule density while the surface area of microcapsules with monovalent VHH was only six-fold above the surface area of blank microcapsules applied at this microcapsule density. This difference could be explained by an increase in binding strength due to additional avidity of the bivalent VHH compared to monovalent VHH, it could also be that the use of bivalent VHH increases flexibility and spacer length of the coupled targeting agents on microcapsules, or a combination of both.

B1: VHH 3E6: VHH binding gum arabic, potato lectin and leaf surface; SEQ ID NO:7 by order of the list (protein, listed as Lama glama)
VHH: QVQLQESGGGLVQPGGTLSLSCAASGFNVRWYGMGWFRQAPGKEREGVACISALQETTAYADSVKGRFTLSRDNPKNTLSLQMNNLQPEDTGVYYCATTDCDDSSRMTYTSYLGQGTQVTVSS
modifications: 3E6
- binding to intact living plant (leaves attached to potato pot plant submerged in VHH solution) [1]: binding leaf surface, stomata, glandular trichomes, and leaf hairs
- absorbance at 405 nm [2]: 0.067

B2: Microcapsules containing uvitex OB VHH 3E6: polyurea microcapsules containing the fluorescent tracer Uvitex OB, coupled with (monovalent) VHH 3E6 (conjugate)
VHH: B1 VHH
modifications: left off: small tags and cut ends
notes: polyurea microcapsules containing the fluorescent tracer Uvitex OB, coupled with (monovalent) VHH 3E6
- Surface area of bound microcapsules ([3]; no coating (second series, with unrelated antigen rows), surface coverage 100%): 72.036
- Surface area of bound microcapsules ([3]; unrelated antigen, surface coverage 4%): 5.011
- Surface area of bound microcapsules ([3]; unrelated antigen, surface coverage 20%): 27.742
- Surface area of bound microcapsules ([3]; unrelated antigen, surface coverage 100%): 69.503
